The values below come from publication PMC5768779.

For the data set, the system named is USP48 (isoform 1). The data set can be described thus: EMSA. The settings on record: 50 nM NCP, estimated from first distinct shift, higher species above 4 uM, EMSA: 50 nM NCP, native gel, SPR: immobilized nucleosomes, 10 successive USP48 injections, one-phase binding fit, binding buffer, pH and temperature not in ….

As for “NCP H2A-BRCA1ub (multi-monoubiquitinated, Widom 601, 147 bp)”, the Kd (usually a measure of binding affinity in units of concentration) (histone H2A multi-monoubiquitinated at the C-terminal BRCA1 site (K125/K127/K129), DNA unmodified) is 1000 nM.

As to NCP unmodified (Widom 601, 147 bp), the Kd is 1000 nM.
